The values below are quoted from earlier work in paper PMC4620043.

Series [1] has as its target fibrin (Homo sapiens) (UniProt P02671).
The target is the same in series [2]. The source holds these as a separate data set.

Read-outs that look alike come from different tables or passages of the source.

Consider CREKA peptide, for which the Kd in the series with fibrin (Homo sapiens) [1] is 6 µM.
For GPRPP peptide, the dissociation constant (Kd) in the series with fibrin (Homo sapiens) [2] is 0.008 µM.

In general, Kd refers to the equilibrium constant for the complex coming apart.
